What was measured:
[1] = molecular target: human IL-27 (single-chain molecule: EBI3 connected by its C-terminus to the N-terminus of IL-27 p28 via a polypeptide linker, amino-terminal peptide tag) (human) (UniProt Q14213); assay: cell-based or functional assay
[2] = molecular target: mouse IL-27 (single-chain molecule: EBI3 connected by its C-terminus to the N-terminus of IL-27 p28 via a polypeptide linker, amino-terminal peptide tag) (mouse) (UniProt O35228); assay: cell-based or functional assay
[3] = molecular target: mouse IL-27 (single-chain molecule: EBI3 connected by its C-terminus to the N-terminus of IL-27 p28 via a polypeptide linker, amino-terminal peptide tag) (mouse) (UniProt O35228); assay: SPR (BIACORE 3000), receptor captured by anti-mouse Fc antibody on CM5 chip, ligand as analyte, 1:1 model with mass transport
[4] = molecular target: human IL-27 (single-chain molecule: EBI3 connected by its C-terminus to the N-terminus of IL-27 p28 via a polypeptide linker, amino-terminal peptide tag) (human) (UniProt Q14213); assay: SPR (BIACORE 3000), receptor amine-coupled to CM5 chip, ligand as analyte, 1:1 model with mass transport
[5] = molecular target: mouse IL-27 (single-chain molecule: EBI3 connected by its C-terminus to the N-terminus of IL-27 p28 via a polypeptide linker, amino-terminal peptide tag) (mouse) (UniProt O35228); assay: as above

IL27RAm(mFc1), mouse IL27RA-Fc fusion polypeptide (extracellular domain of mouse IL27RA and wild type BALB/c mouse gamma2a constant region Fc tag)
IC50 (nM), inhibition of IL-27-induced STAT3 phosphorylation, mouse spleens, huIL-27 at EC90 2 nM [1]: 9.3 nM
IC50 (nM), inhibition of IL-27-induced STAT3 phosphorylation, total human PBMCs, huIL-27 at EC90 2 nM [1]: 1370 nM
IC50 (nM), inhibition of IL-27-induced STAT3 phosphorylation, mouse spleens, muIL-27 at EC90 0.2 nM [2]: 0.18 nM
IC50 (nM), inhibition of IL-27-induced STAT3 phosphorylation, total human PBMCs, muIL-27 at EC90 2 nM [2]: 4.83 nM
IL-2 concentration (pg/ml), naive mouse CD4 T cells, 48 hr, mIL-27RA 0 ug/ml (zero point, no soluble receptor present) + mouse IL-27 10 ng/ml [2]: 1260 pg/mL
IL-2 concentration (pg/ml), naive mouse CD4 T cells, 48 hr, mIL-27RA 5 ug/ml + mouse IL-27 10 ng/ml [2]: 4020 pg/mL
IL-2 concentration (pg/ml), naive mouse CD4 T cells, 48 hr, mIL-27RA 10 ug/ml (second row) + mouse IL-27 10 ng/ml [2]: 4920 pg/mL
IL-2 concentration (pg/ml), naive mouse CD4 T cells, 48 hr, mIL-27RA 10 ug/ml + mouse IL-27 10 ng/ml [2]: 5220 pg/mL
IL-2 concentration (pg/ml), naive mouse CD4 T cells, 72 hr, mIL-27RA 0 ug/ml (zero point, no soluble receptor present) + mouse IL-27 10 ng/ml [2]: 234 pg/mL
IL-2 concentration (pg/ml), naive mouse CD4 T cells, 72 hr, mIL-27RA 5 ug/ml + mouse IL-27 10 ng/ml [2]: 5740 pg/mL
IL-2 concentration (pg/ml), naive mouse CD4 T cells, 72 hr, mIL-27RA 10 ug/ml (second row) + mouse IL-27 10 ng/ml [2]: 12200 pg/mL
IL-2 concentration (pg/ml), naive mouse CD4 T cells, 72 hr, mIL-27RA 10 ug/ml + mouse IL-27 10 ng/ml [2]: 6700 pg/mL
block of the ability of mouse IL-27 to inhibit IL-2 production by naive CD4 T cells [2]: 50%
Kd [3]: 0.12 nM
koff [3]: 0.0012 s⁻¹
kon [3]: 1e+07 M⁻¹ s⁻¹

human IL27RA-Fc5 fusion protein (Fc fusion)
Kd [4]: 0.19 nM
koff [4]: 0.0019 s⁻¹
kon [4]: 1e+07 M⁻¹ s⁻¹
Kd [5]: 0.22 nM
koff [5]: 0.0018 s⁻¹
kon [5]: 8.1e+06 M⁻¹ s⁻¹
IC50 (nM), inhibition of IL-27-induced STAT3 phosphorylation, mouse spleens, huIL-27 at EC90 2 nM [1]: 0.32 nM
IC50 (nM), inhibition of IL-27-induced STAT3 phosphorylation, total human PBMCs, huIL-27 at EC90 2 nM [1]: 0.95 nM
IC50 (nM), inhibition of IL-27-induced STAT3 phosphorylation, mouse spleens, muIL-27 at EC90 0.2 nM [2]: 0.14 nM
IC50 (nM), inhibition of IL-27-induced STAT3 phosphorylation, total human PBMCs, muIL-27 at EC90 2 nM [2]: 2.97 nM
IL-2 concentration (pg/ml), naive mouse CD4 T cells, 48 hr, hIL-27RA 0 ug/ml (zero point, no soluble receptor present) + mouse IL-27 10 ng/ml [2]: 1780 pg/mL
IL-2 concentration (pg/ml), naive mouse CD4 T cells, 48 hr, hIL-27RA 5 ug/ml + mouse IL-27 10 ng/ml [2]: 5780 pg/mL
IL-2 concentration (pg/ml), naive mouse CD4 T cells, 48 hr, hIL-27RA 10 ug/ml (second row) + mouse IL-27 10 ng/ml [2]: 5330 pg/mL
IL-2 concentration (pg/ml), naive mouse CD4 T cells, 48 hr, hIL-27RA 10 ug/ml + mouse IL-27 10 ng/ml [2]: 5770 pg/mL
IL-2 concentration (pg/ml), naive mouse CD4 T cells, 72 hr, hIL-27RA 0 ug/ml (zero point, no soluble receptor present) + mouse IL-27 10 ng/ml [2]: 1260 pg/mL
IL-2 concentration (pg/ml), naive mouse CD4 T cells, 72 hr, hIL-27RA 5 ug/ml + mouse IL-27 10 ng/ml [2]: 1870 pg/mL
IL-2 concentration (pg/ml), naive mouse CD4 T cells, 72 hr, hIL-27RA 10 ug/ml (second row) + mouse IL-27 10 ng/ml [2]: 17500 pg/mL
IL-2 concentration (pg/ml), naive mouse CD4 T cells, 72 hr, hIL-27RA 10 ug/ml + mouse IL-27 10 ng/ml [2]: 28600 pg/mL
block of the ability of mouse IL-27 to inhibit IL-2 production by naive CD4 T cells [2]: 50%

Source: patent publication US20100093076A1, “SOLUBLE IL-27 RECEPTOR” (priority 2006, published 2010)
